Among the data in paper doi:10.1101/2021.05.16.444004 (bioRxiv, 2021) are Kd values, retold here.

For orientation: Kd means the equilibrium constant for the complex coming apart. Read a high Kd as lower affinity.

The target in the assay is SARS-CoV-2 RBD-SD1 (SARS-CoV-2, Wuhan-Hu-1, UniProt P0DTC2). The experiment in a line: BLI. For orientation: In BLI a coated tip is dipped into the sample, and binding shifts an interference pattern.

B1: 54042-4 IgG (antibody, V domains shown)
VH: QITLKESGPTLVKPTQTLTLTCTFSGFSLSTIGVGVSWIRQPPGKALDWLALIYWDDDKRYSPSLKSRLTVTMDTSKNQVVLTLTNMDPVDTATYFCAHGLFSSSDWGGLDVWGQGTTVTVSS
VL: DMQMTQSPSSLSASVGDRVTITCRASQSVFTYLNWYQQKPGKAPKLLIYAASRLQSGVPSRFRGSGSGTDFTLTISSLQPEDFATYYCQQSHSTPFIFGPGTKVDIK
On to B1, for which the Kd is 21.8 nM.
